According to publication PMC4046772, “Different Dynamical Effects in Mesophilic and Hyperthermophilic Dihydrofolate Reductases” (Journal of the American Chemical Society, 2014):

Columns and labels:
[1] = substrate: NC(=O)C1=CN([C@@H]2O[C@H](COP(=O)(O)OP(=O)(O)OC[C@H]3O[C@@H](n4cnc5c(N)ncnc54)[C@H](OP(=O)(O)O)[C@@H]3O)[C@@H](O)[C@H]2O)C=CC1; assay: steady-state kinetics; assay type: biochemical, Thermotoga maritima; conditions: 45 °C, light enzyme (natural isotope abundance), co-substrate dihydrofolate, steady-state kinetics at pH 7
[2] = substrate: Nc1nc2c(c(=O)[nH]1)N=C(CNc1ccc(C(=O)N[C@@H](CCC(=O)O)C(=O)O)cc1)CN2; assay: steady-state kinetics; assay type: biochemical, Thermotoga maritima; conditions: 45 °C, light enzyme (natural isotope abundance), co-substrate NADPH, steady-state kinetics at pH 7

B1: TmDHFR (Thermotoga maritima MSB8) (protein)
chain: MAKVIFVLAMDVSGKIASSVESWSSFEDRKNFRKITTEIGNVVMGRITFEEIGRPLPERLNVVLTRRPKTSNNPSLVFFNGSPADVVKFLEGKGYERVAVIGGKTVFTEFLREKLVDELFVTVEPYVFGKGIPFFDEFEGYFPLKLLEMRRLNERGTLFLKYSVEKSHR
notes: purified homodimer, natural isotope abundance (light) enzyme; procedures in supplement
[1]
  Km: 1 µM
[2]
  Km: 1 µM
